# According to US20150344570A1 (published 2015):
# T1: FcγRIIb extracellular domain with C-terminal His tag (human, UniProt P31994 43-217)
# T1 construct: extracellular domain; expressed in FreeStyle293 cells; analyte in Biacore; also called FcgRIIb; 2b
# T1 sequence (looked up): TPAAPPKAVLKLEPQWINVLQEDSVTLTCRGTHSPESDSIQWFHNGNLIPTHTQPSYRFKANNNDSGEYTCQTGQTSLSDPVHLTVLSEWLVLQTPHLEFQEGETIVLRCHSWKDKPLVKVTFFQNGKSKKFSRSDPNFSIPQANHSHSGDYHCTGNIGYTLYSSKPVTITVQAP
# Tests used:
# [1] = biological target: T2, FcγRIa extracellular domain with C-terminal His tag (human, UniProt P12314 16-292); experiment: SPR (Biacore), captured antibody, FcγR as analyte; relative binding
# T2 construct: extracellular domain; expressed in FreeStyle293 cells; analyte in Biacore; also called FcgRI; 1a
# T2 sequence (P12314 16-292): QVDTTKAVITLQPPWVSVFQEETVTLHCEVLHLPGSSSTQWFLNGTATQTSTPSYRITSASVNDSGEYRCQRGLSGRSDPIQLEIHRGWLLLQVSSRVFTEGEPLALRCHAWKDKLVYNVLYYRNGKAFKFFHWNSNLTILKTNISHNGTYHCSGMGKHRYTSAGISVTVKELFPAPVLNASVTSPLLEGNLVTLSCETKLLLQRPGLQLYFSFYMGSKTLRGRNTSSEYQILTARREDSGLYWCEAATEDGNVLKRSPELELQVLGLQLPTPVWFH
# [2] = biological target: T1, FcγRIIb extracellular domain with …; experiment: as above
Binder,He/Con_1a [1],He/Con_2b [2]
"GpH7-A5/GpH7-B3 variant Y300_06M/GpL16-k0 (antibody, human IgG1, kappa, He Ab; IgG1, mutation in one H chain) heavy 1: not shown heavy 2: not shown light: DIVMTQSPLSLPVTPGEPASISCQASESLVHSNRNTYLHWYLQKPGQSPQLLIYKVSNRFSGVPDRFSGSGSGTDFTLKISRVEAEDVGVYYCSQNTHVPPTFGQGTKVEIERTVAAPSVFIFPPSDEQLKSGTASVVCLLNNFYPREAKVQWKVDNALQSGNSQESVTEQDSKDSTYSLSSTLTLSKADYEKHKVYACEVTHQGLSSPVTKSFNRGEC",112 % of HeCon Ab (GpH7-A5/GpH7-B3/GpL16-k0 = 100),84.3 % of HeCon Ab (GpH7-A5/GpH7-B3/GpL16-k0 = 100)
"GpH7-A5/GpH7-B3 variant Y300_02A/GpL16-k0 (antibody, human IgG1, kappa, He Ab; IgG1, mutation in one H chain) heavy 1: not shown heavy 2: not shown light: DIVMTQSPLSLPVTPGEPASISCQASESLVHSNRNTYLHWYLQKPGQSPQLLIYKVSNRFSGVPDRFSGSGSGTDFTLKISRVEAEDVGVYYCSQNTHVPPTFGQGTKVEIERTVAAPSVFIFPPSDEQLKSGTASVVCLLNNFYPREAKVQWKVDNALQSGNSQESVTEQDSKDSTYSLSSTLTLSKADYEKHKVYACEVTHQGLSSPVTKSFNRGEC",112 % of HeCon Ab (GpH7-A5/GpH7-B3/GpL16-k0 = 100),69.2 % of HeCon Ab (GpH7-A5/GpH7-B3/GpL16-k0 = 100)
"GpH7-A5/GpH7-B3 variant Y300_01G/GpL16-k0 (antibody, human IgG1, kappa, He Ab; IgG1, mutation in one H chain) heavy 1: not shown heavy 2: not shown light: DIVMTQSPLSLPVTPGEPASISCQASESLVHSNRNTYLHWYLQKPGQSPQLLIYKVSNRFSGVPDRFSGSGSGTDFTLKISRVEAEDVGVYYCSQNTHVPPTFGQGTKVEIERTVAAPSVFIFPPSDEQLKSGTASVVCLLNNFYPREAKVQWKVDNALQSGNSQESVTEQDSKDSTYSLSSTLTLSKADYEKHKVYACEVTHQGLSSPVTKSFNRGEC",116 % of HeCon Ab (GpH7-A5/GpH7-B3/GpL16-k0 = 100),48.4 % of HeCon Ab (GpH7-A5/GpH7-B3/GpL16-k0 = 100)
"GpH7-A5/GpH7-B3 variant Y296_13S/GpL16-k0 (antibody, human IgG1, kappa, He Ab; IgG1, mutation in one H chain) heavy 1: not shown heavy 2: not shown light: DIVMTQSPLSLPVTPGEPASISCQASESLVHSNRNTYLHWYLQKPGQSPQLLIYKVSNRFSGVPDRFSGSGSGTDFTLKISRVEAEDVGVYYCSQNTHVPPTFGQGTKVEIERTVAAPSVFIFPPSDEQLKSGTASVVCLLNNFYPREAKVQWKVDNALQSGNSQESVTEQDSKDSTYSLSSTLTLSKADYEKHKVYACEVTHQGLSSPVTKSFNRGEC",105 % of HeCon Ab (GpH7-A5/GpH7-B3/GpL16-k0 = 100),86.3 % of HeCon Ab (GpH7-A5/GpH7-B3/GpL16-k0 = 100)
"GpH7-A5/GpH7-B3 variant Y296_19Q/GpL16-k0 (antibody, human IgG1, kappa, He Ab; IgG1, mutation in one H chain) heavy 1: not shown heavy 2: not shown light: DIVMTQSPLSLPVTPGEPASISCQASESLVHSNRNTYLHWYLQKPGQSPQLLIYKVSNRFSGVPDRFSGSGSGTDFTLKISRVEAEDVGVYYCSQNTHVPPTFGQGTKVEIERTVAAPSVFIFPPSDEQLKSGTASVVCLLNNFYPREAKVQWKVDNALQSGNSQESVTEQDSKDSTYSLSSTLTLSKADYEKHKVYACEVTHQGLSSPVTKSFNRGEC",112 % of HeCon Ab (GpH7-A5/GpH7-B3/GpL16-k0 = 100),89.3 % of HeCon Ab (GpH7-A5/GpH7-B3/GpL16-k0 = 100)

# The remaining lines, values ahead:
He/Con_1a [1],He/Con_2b [2],Binder
105 % of HeCon Ab (GpH7-A5/GpH7-B3/GpL16-k0 = 100),41.2 % of HeCon Ab (GpH7-A5/GpH7-B3/GpL16-k0 = 100),"GpH7-A5/GpH7-B3 variant Y300_12R/GpL16-k0 (antibody, human IgG1, kappa, He Ab; IgG1, mutation in one H chain) heavy 1: not shown heavy 2: not shown light: DIVMTQSPLSLPVTPGEPASISCQASESLVHSNRNTYLHWYLQKPGQSPQLLIYKVSNRFSGVPDRFSGSGSGTDFTLKISRVEAEDVGVYYCSQNTHVPPTFGQGTKVEIERTVAAPSVFIFPPSDEQLKSGTASVVCLLNNFYPREAKVQWKVDNALQSGNSQESVTEQDSKDSTYSLSSTLTLSKADYEKHKVYACEVTHQGLSSPVTKSFNRGEC"
112 % of HeCon Ab (GpH7-A5/GpH7-B3/GpL16-k0 = 100),55.6 % of HeCon Ab (GpH7-A5/GpH7-B3/GpL16-k0 = 100),"GpH7-A5/GpH7-B3 variant Y300_14T/GpL16-k0 (antibody, human IgG1, kappa, He Ab; IgG1, mutation in one H chain) heavy 1: not shown heavy 2: not shown light: DIVMTQSPLSLPVTPGEPASISCQASESLVHSNRNTYLHWYLQKPGQSPQLLIYKVSNRFSGVPDRFSGSGSGTDFTLKISRVEAEDVGVYYCSQNTHVPPTFGQGTKVEIERTVAAPSVFIFPPSDEQLKSGTASVVCLLNNFYPREAKVQWKVDNALQSGNSQESVTEQDSKDSTYSLSSTLTLSKADYEKHKVYACEVTHQGLSSPVTKSFNRGEC"
113 % of HeCon Ab (GpH7-A5/GpH7-B3/GpL16-k0 = 100),73.6 % of HeCon Ab (GpH7-A5/GpH7-B3/GpL16-k0 = 100),"GpH7-A5/GpH7-B3 variant Y300_08L/GpL16-k0 (antibody, human IgG1, kappa, He Ab; IgG1, mutation in one H chain) heavy 1: not shown heavy 2: not shown light: DIVMTQSPLSLPVTPGEPASISCQASESLVHSNRNTYLHWYLQKPGQSPQLLIYKVSNRFSGVPDRFSGSGSGTDFTLKISRVEAEDVGVYYCSQNTHVPPTFGQGTKVEIERTVAAPSVFIFPPSDEQLKSGTASVVCLLNNFYPREAKVQWKVDNALQSGNSQESVTEQDSKDSTYSLSSTLTLSKADYEKHKVYACEVTHQGLSSPVTKSFNRGEC"
112 % of HeCon Ab (GpH7-A5/GpH7-B3/GpL16-k0 = 100),84.1 % of HeCon Ab (GpH7-A5/GpH7-B3/GpL16-k0 = 100),"GpH7-A5/GpH7-B3 variant Y300_20W/GpL16-k0 (antibody, human IgG1, kappa, He Ab; IgG1, mutation in one H chain) heavy 1: not shown heavy 2: not shown light: DIVMTQSPLSLPVTPGEPASISCQASESLVHSNRNTYLHWYLQKPGQSPQLLIYKVSNRFSGVPDRFSGSGSGTDFTLKISRVEAEDVGVYYCSQNTHVPPTFGQGTKVEIERTVAAPSVFIFPPSDEQLKSGTASVVCLLNNFYPREAKVQWKVDNALQSGNSQESVTEQDSKDSTYSLSSTLTLSKADYEKHKVYACEVTHQGLSSPVTKSFNRGEC"
111 % of HeCon Ab (GpH7-A5/GpH7-B3/GpL16-k0 = 100),87 % of HeCon Ab (GpH7-A5/GpH7-B3/GpL16-k0 = 100),"GpH7-A5/GpH7-B3 variant Y300_16H/GpL16-k0 (antibody, human IgG1, kappa, He Ab; IgG1, mutation in one H chain) heavy 1: not shown heavy 2: not shown light: DIVMTQSPLSLPVTPGEPASISCQASESLVHSNRNTYLHWYLQKPGQSPQLLIYKVSNRFSGVPDRFSGSGSGTDFTLKISRVEAEDVGVYYCSQNTHVPPTFGQGTKVEIERTVAAPSVFIFPPSDEQLKSGTASVVCLLNNFYPREAKVQWKVDNALQSGNSQESVTEQDSKDSTYSLSSTLTLSKADYEKHKVYACEVTHQGLSSPVTKSFNRGEC"
